Assay results taken from patent publication US20130158103A1.

Biological target: TGFβ1 (PeproTech Inc, Rocky Hill, N.J.)
Assay: cell-based or functional assay

human decorin (Accession #NM-001920), expressed in human corneal fibroblasts (HSF) from pcDNA3.1-decorin (from UniProt P07585 31-359)
SMA RNA level (real-time PCR), decorin-transfected vs un-transfected HSF with TGFβ1 1 ng/ml: > 6 fold | SMA protein level (western blot), decorin-transfected vs un-transfected HSF with TGFβ1: 83% | SMA-stained cells (immunocytochemistry), decorin-transfected vs un-transfected HSF with TGFβ1: 79% | collagen type I RNA level (real-time PCR), decorin-transfected vs naked-vector transfected HSF with TGFβ1 1 ng/ml: 1 fold | collagen type III RNA level (real-time PCR), decorin-transfected vs naked-vector transfected HSF with TGFβ1 1 ng/ml: 0.9 fold | collagen type IV RNA level (real-time PCR), decorin-transfected vs naked-vector transfected HSF with TGFβ1 1 ng/ml: 3.2 fold | fibronectin RNA level (real-time PCR), decorin-transfected vs naked-vector transfected HSF with TGFβ1 1 ng/ml: 3.1 fold
